{
  "source": "patent US20250281632A1",
  "about": "“LGALS3BP ANTIBODY-DRUG-CONJUGATE AND ITS USE FOR THE TREATMENT OF CANCER” (MEDIAPHARMA S.R.L., priority 2018, published 2025)",
  "key": {"[1]": {"system": "Neuroblastoma cell lines (SHSY5Y, Kelly and hNB)", "assay": "MTT cell killing assay", "format": "cell-based, human", "conditions": "72 hours, A375m melanoma cells as positive control (FIG. 19)", "protocol": "Neuroblastoma cell lines (SHSY5Y, Kelly and hNB) and A375m melanoma cell line were plated and treated with increasing concentrations of SH-DM3 for 72 hours. The cell killing activity of the drug was evaluated by MTT assay."}, "[2]": {"molecular_target": "T1, Human recombinant LGALS3BP (human, UniProt Q08380 19-585)", "T1 construct": "also called 90K", "T1 sequence (looked up)": "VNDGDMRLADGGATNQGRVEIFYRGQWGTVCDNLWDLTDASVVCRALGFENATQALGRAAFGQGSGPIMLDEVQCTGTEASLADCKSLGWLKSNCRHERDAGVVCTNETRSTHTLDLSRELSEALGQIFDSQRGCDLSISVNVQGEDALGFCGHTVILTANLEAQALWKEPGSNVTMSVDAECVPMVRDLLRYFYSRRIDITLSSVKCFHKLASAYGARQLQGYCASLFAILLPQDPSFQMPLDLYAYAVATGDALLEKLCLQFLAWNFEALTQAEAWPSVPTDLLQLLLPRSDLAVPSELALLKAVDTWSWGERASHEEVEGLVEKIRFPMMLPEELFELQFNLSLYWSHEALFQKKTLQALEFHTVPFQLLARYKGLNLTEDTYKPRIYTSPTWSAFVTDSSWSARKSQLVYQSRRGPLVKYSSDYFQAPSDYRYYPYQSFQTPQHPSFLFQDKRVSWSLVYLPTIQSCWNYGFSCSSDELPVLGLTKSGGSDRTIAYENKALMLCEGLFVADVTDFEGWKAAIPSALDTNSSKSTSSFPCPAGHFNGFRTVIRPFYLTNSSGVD", "assay": "ELISA, plate-coated human recombinant LGALS3BP, anti-human IgG-HRP detection", "protocol": "Human recombinant LGALS3BP (2 μg/ml) was pre-coated overnight at 4° C. on 96 well-plates NUNC Maxisorp modules. […] After several washes with PBS-0, 1% Tween-20, anti-human IgG-HRP was added and incubated for 1 hour at room temperature. After washes, stabilized chromogen was added for at least 10 minutes in the dark, before stopping the reaction with the addition of 1 N H₂SO₄. The resulting color was read at 492 nm with an Elisa reader."}, "[3]": {"molecular_target": "T2, LGALS3BP at the membrane of human tumor cells (human, UniProt Q08380 19-585)", "T2 construct": "whole, on cells; A secreted protein that stays close to the plasma membrane; It was detected by immunofluorescence on cells; also called Gal-3BP", "T2 sequence (looked up)": "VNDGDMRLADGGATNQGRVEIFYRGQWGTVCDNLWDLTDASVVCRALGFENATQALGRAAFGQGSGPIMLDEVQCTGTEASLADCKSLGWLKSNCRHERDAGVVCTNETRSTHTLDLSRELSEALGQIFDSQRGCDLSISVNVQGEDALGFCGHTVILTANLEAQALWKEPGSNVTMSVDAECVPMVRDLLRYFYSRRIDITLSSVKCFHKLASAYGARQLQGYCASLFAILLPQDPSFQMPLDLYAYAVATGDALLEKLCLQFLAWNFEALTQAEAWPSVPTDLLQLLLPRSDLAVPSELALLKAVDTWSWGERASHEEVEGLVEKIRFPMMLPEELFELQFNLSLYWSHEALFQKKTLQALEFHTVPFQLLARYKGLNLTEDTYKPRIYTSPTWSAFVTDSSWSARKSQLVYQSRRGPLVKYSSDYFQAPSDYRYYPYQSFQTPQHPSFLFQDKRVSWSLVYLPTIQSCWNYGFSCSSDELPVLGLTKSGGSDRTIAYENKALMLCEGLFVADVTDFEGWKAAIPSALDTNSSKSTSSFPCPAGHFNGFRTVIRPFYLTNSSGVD", "assay": "confocal immunofluorescence on MDA-MB-231, A375 and FADU cells, anti-human IgG-Alexa Fluor 488", "protocol": "Human tumor cells were grown on glass coverslips for 24 hours. […] At the end of incubation, cells were fixed in 4% paraformaldehyde for 15 minutes at room temperature, permeabilized with 0.25% Triton X-100 for 5 minutes, and blocked with 0.1% BSA for 1 hour at room temperature. Coverslips were then incubated with anti-human IgG-Alexa Fluor 488 conjugated. DRAQ5 was used to visualize nuclei. Images were acquired with a Zeiss LSM 510 meta-confocal microscopy using 488- and 633-nm lasers. [0142] […] [0143] A-B; MDA-MB-231 breast cancer; C-D, A375 melanoma; E-F, FADU, H&N cancer; G-H, HBF, normal bronchial fibroblasts."}},
  "data": [
    {"molecule": "COc1cc2cc(c1Cl)N(C)C(=O)C[C@H](OC(=O)C(C)N(C)C(=O)CCC(C)S)[C@]1(C)O[C@H]1[C@H](C)C1C[C@@](O)(NC(=O)O1)[C@H](OC)/C=C/C=C(\\C)C2", "note": "(some centres unmarked) [SH DM3]", "values": [
      {"measurement": "cell killing activity", "setting": "[1]", "value": "potent cell killing activity"}
    ]},
    {"molecule": "Antibody 1959-sss (C220S-C226S-C229S) (antibody, V domains shown, Humanized SP-2 on a human IgG framework, with the hinge cysteines 220, 226 and 229 changed to serine, so no interchain disulfides; Made in CHO cells) VH: QVQLQESGPGLVKPSETLSLTCAVSGYSISSGYYWTWIRQPPGKGLEWIGYITYDGKNNYSPSLKNRVTISVDTSKNQFSLKLSSVTAADTAVYYCAREGSSVITTGFTFWGQGTLVTVSS VL: DIQMTQSPSTLSASVGDRVTITCSASSRVSYMYWYQQKPGKAPKLLIYLTSNLASGVPARFSGSGSGTEFTLTISSLQPDDFATYYCQQWTSHPPTFGQGTKVEVKR", "values": [
      {"measurement": "binding result", "setting": "[2]", "value": "binds"},
      {"measurement": "binding result", "setting": "[3]", "value": "binds"}
    ]},
    {"molecule": "1959-sss-DM3 (antibody, V domains shown, maytansinoid DM3 joined by a disulfide bond to a cysteine of the light chain (DAR 2; light chain mass 24053 Da against 23261 Da reduced); residue number not given, also called Ab1959-SSS-DM3) VH: QVQLQESGPGLVKPSETLSLTCAVSGYSISSGYYWTWIRQPPGKGLEWIGYITYDGKNNYSPSLKNRVTISVDTSKNQFSLKLSSVTAADTAVYYCAREGSSVITTGFTFWGQGTLVTVSS VL: DIQMTQSPSTLSASVGDRVTITCSASSRVSYMYWYQQKPGKAPKLLIYLTSNLASGVPARFSGSGSGTEFTLTISSLQPDDFATYYCQQWTSHPPTFGQGTKVEVKR", "values": [
      {"measurement": "binding result", "setting": "[2]", "value": "binds"},
      {"measurement": "binding result", "setting": "[3]", "value": "binds"}
    ]}
  ]
}
